# In paper PMC8244865, “Recruitment of phospholipase Cγ1 to the non-structural membrane protein pK15 of Kaposi Sarcoma-associated herpesvirus promotes its Src-dependent phosphorylation” (PLoS Pathogens, 2021):
# What was measured:
# PLCγ1 SA = assay: GST-pulldown, PLCγ1 SA; format: binding
# Procedure: Fig 2 K15 phosphorylation results in a stronger binding to PLCγ1. (A) An expression plasmid for an S-tagged full length PLCγ1 or the empty vector (EV) were transfected in HEK-293T cells. After 30h cells were lysed and a GST-pulldown assay was performed with GST-fused pK15 CT (WT), the pK15 CT Y^481F mutant (Y^481F) or GST that had been bound to glutathione beads and previously phosphorylated by GST-6xHis Src (+) or left unphosphorylated (-). Bound proteins were analysed by WB using antibodies to the S tag on PLCγ1 and pTyr. (B) Untransfected HEK-293T cells were lysed and a GST-pulldown assay with pre-phosphorylated (+) or unphosphorylated (-) GST-fused pK15 CT WT/Y^481F or GST was performed and analysed by WB as in (A). (C) An expression plasmid for an S-tagged PLCγ1 SA or the empty vector were transfected in HEK-293T cells. […]
# (§1) HEK293T cells were washed once with cold PBS 30 hours after transfection, lysed in IP buffer (50 mM Tris pH7.6, 60 mM NaCl, 6.25 mM EDTA, 1% (v/v) glycerol, 0.04% (v/v) NP-40) on ice for 30 minutes, sonicated shortly and cleared by centrifugation for 10 minutes at 20.000g, 4°C. […] Beads were then washed 5 times in 500 μl IP buffer (or for purified proteins IP buffer with 200 mM NaCl), suspended in 10 μl of 5x Laemmli sample buffer (60 mM Tris pH6.8, 24% (v/v) glycerol, 2% (v/v) SDS, 5% (v/v) β-mercaptoethanol, 0.01% Bromphenol Blue) and analysed by western blot.
# [1] = tested on: full length PLCγ1 R586L+R694L; assay: GST-pulldown, full-length PLCγ1 double mutant; details: phosphorylated; binding eliminated for SA domain but not full length
# Procedure: (§2) Fig 3 Contribution of individual PLCγ1 SH2 domains to the interaction with phosphorylated pK15. The pK15 CT fused to GST, its Y^481F mutant, or GST alone were bound to glutathione beads, phosphorylated in vitro (+) or left unphosphorylated (-), and a GST pulldown was performed 32h after transfection into HEK-293T cells of expression vectors for S-tagged full-length PLCγ1 (FL) (A) or PLCγ1 SA (B) containing the indicated mutations. (C) pK15 CT WT, its Y^481F mutant or GST were bound to glutathione beads, phosphorylated in vitro (+) or left unphosphorylated (-), and used for a GST pulldown assay 32h after transfecting HEK 293T cells with expression vectors for S-tagged individual PLCγ1 nSH2 or cSH2 domains. […]
# as §1
# [2] = tested on: PLCγ1 cSH2 domain (vs nSH2 domain); assay: GST-pulldown, individual SH2 domains; format: binding; details: in vitro phosphorylated; S-tagged individual SH2 domains transfected in HEK 293
# Procedure: as §2, §1
# [3] = tested on: PLCγ1 R^586L and R^694L double mutant (DM) (SA and tSH2); assay: AlphaLISA, SA and tSH2 double mutant; format: binding; details: phosphorylated; 300 nM each protein
# Procedure: Fig 4 The PLCγ1 cSH2 domain is required for the binding of PLCγ1 to phosphorylated pK15 in vitro and may serve as a dominant-negative inhibitor. GST-fused pK15 cytoplasmic tail WT (A), or its truncated mutant N2 [51] (B), were phosphorylated in vitro by 2xStrep-Src and an AlphaLISA was performed with the indicated His-tagged fragments of PLCγ1. Mean and standard deviation from at least two independent experiments with two technical replicates each are depicted. GST fusion proteins of the N1 (C) or N2 (D) truncation mutants of the pK15 cytoplasmic tail were phosphorylated in vitro by 2xStrep-Src and their interaction with recombinant purified PLCγ1 tSH2 (tandem SH2) or SA (γ-specific array) domains was measured by AlphaLISA in the presence of increasing concentrations (300 nM, 600 nM, 900 nM, 1200 nM) of the purified PLCγ1 cSH2. […] After 48h lysates were collected and analysed by Western blot using an antibody to PLCγ1 pY^783 to assess the level of PLCγ1 phosphorylation. (F) The intensities of the pPLCγ1 bands shown in panel E were quantified by densitometry, normalized to the values obtained with the empty vector (EV) in the presence of pK15, and plotted as relative values. […]
# His-tagged PLCγ1 (SA, tSH2 or the isolated SH2 domains) was incubated at room temperature with GST-tagged K15P or its mutants for 1 hour. […] Emission at 615 nm was detected on BioTek Synergy 2 plate reader.
molecule,measurement,setting,value
"pK15 CT^WT: pK15 cytoplasmic tail fused to GST at its N-terminal end, phosphorylated in vitro by Src (protein, tyrosine-phosphorylated in vitro by Src; sites not stated for this construct; left off: GST, N-terminal, kept) SQLLNEVELQEVNRDPPNVFGYASILVSGAEESREPSPQPDQSGMSILRVDGGSAFRIDTAQAATQPTDDLYEEVLFPRN",interaction with PLCγ1 SA (GST-pulldown),"PLCγ1 SA; in vitro phosphorylated by Src, transfected SA in HEK 293, Western blot",bound more strongly to the SA region than the phosphorylated pK15 CT^Y481F mutant
same,"interaction with PLCγ1 SA, unphosphorylated (GST-pulldown)",PLCγ1 SA; without prior in vitro phosphorylation by Src kinase,marginal binding to PLCγ1 SA
same,binding of double mutant (GST-pulldown),[1],not to full length PLCγ1
same,preference between SH2 domains (GST-pulldown),[2],bound preferentially to the PLCγ1 cSH2 domain compared to its nSH2 domain
same,interaction (AlphaLISA),[3],failed to interact
